Measurements reported in patent publication US20230183753A1, “Methods of in Vitro Cell Delivery” (Intellia Therapeutics, Inc., priority 2020, published 2023).
Oligonucleotides are written 5' to 3', each unit as a sugar letter and its base; * is a phosphorothioate linkage, no mark a phosphodiester; rarer units and linkages stand in square brackets, end groups in braces. Plain capitals give the bases only. m = 2'-O-methyl; r = 2'-OH (RNA)

What was measured:
[1] = test system: B2M, TRAC, TRBC1/2, CIITA; experiment: NGS editing profile of T cells with BC22n or Cas9 mRNA, single or four guides, LNP titration, Example 16A; type: cell-based, human; details: LNP;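 also: activated T cells exposed to LNPs 72 h after activation, kept at 37 °C, harvested on day 10 post activation, editing measured by NGS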
Method: Cells were expanded in T cell basal media for 72 hours prior to LNP transfection.
LNPs were mixed to fixed total mRNA weight ratios of 6:3:2 for editor mRNA, guide RNA, and UGI mRNA respectively as described in Table 12. […] LNP mixtures were incubated for 5 minutes at 37° C. in T cell basal media substituting 6% cynomolgus monkey serum (Bioreclamation IVT, Cat. CYN220760) for fetal bovine serum.
T cells were incubated at 37° C. with 5% CO2 for the duration of the experiment.
In total, T cells were exposed to 6 different LNPs simultaneously (editor mRNA, UGI mRNA, 4 guides).

[2] = test system: B2M, CD3, MHC II; experiment: Flow cytometry of antigen negative T cells (B2M, CD3, MHC II) after BC22n or Cas9 editing, Example 16A; type: cell-based, human
From the text: Cells were subsequently washed, processed on a Cytoflex instrument (Beckman Coulter) and analyzed using the FlowJo software package. T cells were gated based on size, shape, viability, and antigen expression.

[3] = multiple guide delivery (four guides simultaneously), locus of the guide assayed, editor BC22n, total RNA 8.6 ng
[4] = multiple guide delivery (four guides simultaneously), locus of the guide assayed, editor BC22n, total RNA 17.2 ng
[5] = multiple guide delivery (four guides simultaneously), locus of the guide assayed, editor BC22n, total RNA 34.4 ng
[6] = multiple guide delivery (four guides simultaneously), locus of the guide assayed, editor BC22n, total RNA 68.8 ng
[7] = multiple guide delivery (four guides simultaneously), locus of the guide assayed, editor BC22n, total RNA 137.5 ng
[8] = multiple guide delivery (four guides simultaneously), locus of the guide assayed, editor BC22n, total RNA 275.0 ng
[9] = multiple guide delivery (four guides simultaneously), locus of the guide assayed, editor BC22n, total RNA 550.0 ng
[10] = multiple guide delivery (four guides simultaneously), locus of the guide assayed, editor Cas9, total RNA 8.6 ng
[11] = multiple guide delivery (four guides simultaneously), locus of the guide assayed, editor Cas9, total RNA 17.2 ng
[12] = multiple guide delivery (four guides simultaneously), locus of the guide assayed, editor Cas9, total RNA 34.4 ng
[13] = multiple guide delivery (four guides simultaneously), locus of the guide assayed, editor Cas9, total RNA 68.8 ng
[14] = multiple guide delivery (four guides simultaneously), locus of the guide assayed, editor Cas9, total RNA 137.5 ng
[15] = multiple guide delivery (four guides simultaneously), locus of the guide assayed, editor Cas9, total RNA 275.0 ng
[16] = multiple guide delivery (four guides simultaneously), locus of the guide assayed, editor Cas9, total RNA 550.0 ng
[17] = single guide delivery, editor BC22n, total RNA 8.6 ng
[18] = single guide delivery, editor BC22n, total RNA 17.2 ng
[19] = single guide delivery, editor BC22n, total RNA 34.4 ng
[20] = single guide delivery, editor BC22n, total RNA 68.8 ng
[21] = single guide delivery, editor BC22n, total RNA 137.5 ng
[22] = single guide delivery, editor BC22n, total RNA 275.0 ng
[23] = single guide delivery, editor BC22n, total RNA 550.0 ng
[24] = single guide delivery, editor Cas9, total RNA 8.6 ng
[25] = single guide delivery, editor Cas9, total RNA 17.2 ng
[26] = single guide delivery, editor Cas9, total RNA 34.4 ng
[27] = single guide delivery, editor Cas9, total RNA 68.8 ng
[28] = single guide delivery, editor Cas9, total RNA 137.5 ng
[29] = single guide delivery, editor Cas9, total RNA 275.0 ng
[30] = single guide delivery, editor Cas9, total RNA 550.0 ng

B1: G015995: guide targeting B2M (SEQ ID NO: 711) (nucleic acid)
guide: mU*mU*mA*rCrCrCrCrArCrUrUrArArCrUrArUrCrUrUrGrUrUrUrUrArGrAmGmCmUmAmGmAmAmAmUmAmGmCrArArGrUrUrArArArArUrArArGrGrCrUrArGrUrCrCrGrUrUrArUrCrAmAmCmUmUmGmAmAmAmAmAmGmUmGmGmCmAmCmCmGmAmGmUmCmGmGmUmGmCmU*mU*mU*mU
[1]; [3]
  C-to-A/G % mean: 3.8%
  C-to-T % mean: 27.3%
  Indel % mean: 2.6%
[1]; [4]
  C-to-A/G % mean: 4.1%
  C-to-T % mean: 47.2%
  Indel % mean: 3.0%
[1]; [5]
  C-to-A/G % mean: 3.9%
  C-to-T % mean: 61.2%
  Indel % mean: 2.6%
[1]; [6]
  C-to-A/G % mean: 2.9%
  C-to-T % mean: 81.4%
  Indel % mean: 1.4%
[1]; [7]
  C-to-A/G % mean: 2.6%
  C-to-T % mean: 90.0%
  Indel % mean: 1.3%
[1]; [8]
  C-to-A/G % mean: 2.2%
  C-to-T % mean: 94.7%
  Indel % mean: 0.8%
[1]; [9]
  C-to-A/G % mean: 2.9%
  C-to-T % mean: 95.9%
  Indel % mean: 0.4%
[1]; [10]
  C-to-A/G % mean: 1.4%
  C-to-T % mean: 0.3%
  Indel % mean: 5.0%
[1]; [11]
  C-to-A/G % mean: 1.3%
  C-to-T % mean: 0.3%
  Indel % mean: 10.5%
[1]; [12]
  C-to-A/G % mean: 1.1%
  C-to-T % mean: 0.3%
  Indel % mean: 19.3%
[1]; [13]
  C-to-A/G % mean: 0.9%
  C-to-T % mean: 0.3%
  Indel % mean: 34.4%
[1]; [14]
  C-to-A/G % mean: 0.7%
  C-to-T % mean: 0.2%
  Indel % mean: 51.1%
[1]; [15]
  C-to-A/G % mean: 0.5%
  C-to-T % mean: 0.2%
  Indel % mean: 68.0%
[1]; [16]
  C-to-A/G % mean: 0.4%
  C-to-T % mean: 0.3%
  Indel % mean: 76.7%
[1]; [17]
  C-to-A/G % mean: 7.7%
  C-to-T % mean: 49.5%
  Indel % mean: 6.0%
[1]; [18]
  C-to-A/G % mean: 6.7%
  C-to-T % mean: 68.5%
  Indel % mean: 4.3%
[1]; [19]
  C-to-A/G % mean: 5.7%
  C-to-T % mean: 79.0%
  Indel % mean: 3.8%
[1]; [20]
  C-to-A/G % mean: 4.6%
  C-to-T % mean: 88.2%
  Indel % mean: 2.5%
[1]; [21]
  C-to-A/G % mean: 4.1%
  C-to-T % mean: 90.6%
  Indel % mean: 2.2%
[1]; [22]
  C-to-A/G % mean: 3.7%
  C-to-T % mean: 92.6%
  Indel % mean: 2.2%
[1]; [23]
  C-to-A/G % mean: 2.8%
  C-to-T % mean: 95.2%
  Indel % mean: 1.6%
[1]; [24]
  C-to-A/G % mean: 1.2%
  C-to-T % mean: 0.3%
  Indel % mean: 23.7%
[1]; [25]
  C-to-A/G % mean: 0.9%
  C-to-T % mean: 0.3%
  Indel % mean: 41.1%
[1]; [26]
  C-to-A/G % mean: 0.6%
  C-to-T % mean: 0.3%
  Indel % mean: 59.4%
[1]; [27]
  C-to-A/G % mean: 0.4%
  C-to-T % mean: 0.2%
  Indel % mean: 76.8%
[1]; [28]
  C-to-A/G % mean: 0.2%
  C-to-T % mean: 0.1%
  Indel % mean: 88.2%
[1]; [29]
  C-to-A/G % mean: 0.1%
  C-to-T % mean: 0.1%
  Indel % mean: 95.1%
[1]; [30]
  C-to-A/G % mean: 0.1%
  C-to-T % mean: 0.1%
  Indel % mean: 97.5%
[2]; editor BC22n, total RNA 8.6 ng
  percent cells negative for antigen, B2M neg, Mean %: 44.0%
[2]; editor BC22n, total RNA 17.2 ng
  percent cells negative for antigen, B2M neg, Mean %: 60.8%
[2]; editor BC22n, total RNA 34.4 ng
  percent cells negative for antigen, B2M neg, Mean %: 75.7%
[2]; editor BC22n, total RNA 68.8 ng
  percent cells negative for antigen, B2M neg, Mean %: 83.9%
[2]; editor BC22n, total RNA 137.5 ng
  percent cells negative for antigen, B2M neg, Mean %: 91.2%
[2]; editor BC22n, total RNA 275.0 ng
  percent cells negative for antigen, B2M neg, Mean %: 94.4%
[2]; editor BC22n, total RNA 550.0 ng
  percent cells negative for antigen, B2M neg, Mean %: 95.7%
[2]; editor Cas9, total RNA 8.6 ng
  percent cells negative for antigen, B2M neg, Mean %: 13.9%
[2]; editor Cas9, total RNA 17.2 ng
  percent cells negative for antigen, B2M neg, Mean %: 30.7%
[2]; editor Cas9, total RNA 34.4 ng
  percent cells negative for antigen, B2M neg, Mean %: 53.4%
[2]; editor Cas9, total RNA 68.8 ng
  percent cells negative for antigen, B2M neg, Mean %: 68.7%
[2]; editor Cas9, total RNA 137.5 ng
  percent cells negative for antigen, B2M neg, Mean %: 82.1%
[2]; editor Cas9, total RNA 275.0 ng
  percent cells negative for antigen, B2M neg, Mean %: 89.3%
[2]; editor Cas9, total RNA 550.0 ng
  percent cells negative for antigen, B2M neg, Mean %: 91.3%
